For assay [1], the target named is T1, KRAS wild type (WT 25-mer) peptide on HLA-DQA1*05:01 / HLA-DQB1*03:01 (human).
T1 peptide: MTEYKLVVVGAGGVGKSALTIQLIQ
Nature of the assay: cytokine release.

The target of assay [2] is T2, KRAS G13D (G13D RAS; the same in KRAS, HRAS and NRAS) peptide on HLA-DQA1*05:01 / HLA-DQB1*03:01 (human).
T2 peptide: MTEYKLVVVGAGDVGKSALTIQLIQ
The assay can be described thus: cytokine release.

Assay [3] concerns the target T1, KRAS wild type (WT 25-mer) peptide on …. Nature of the assay: activation reporter or marker.
Assay [4] concerns the target T2, KRAS G13D (G13D RAS; the same in KRAS, …). The assay can be described thus: activation reporter or marker.

B1: 4400 TCR-A1 (TCR, V domains shown)
Valpha: QKEVEQDPGPLSVPEGAIVSLNCTYSNSAFQYFMWYRQYSRKGPELLMYTYSSGNKEDGRFTAQVDKSSKYISLFIRDSQPSDSATYLCAMRANTDKLIFGTGTRLQVFP
Vbeta: DVKVTQSSRYLVKRTGEKVFLECVQDMDHENMFWYRQDPGLGLRLIYFSYDVKMKEKGDIPEGYSVSREKKERFSLILESASTNQTSMYLCASRLGNTGELFFGEGSRLTVL
As to B1, the binding result in assay [1] is on record as “no recognition”; in assay [2], “recognises”.

B2: 4400 TCR-J (TCR, V domains shown)
Valpha: QKEVEQDPGPLSVPEGAIVSLNCTYSNSAFQYFMWYRQYSRKGPELLMYTYSSGNKEDGRFTAQVDKSSKYISLFIRDSQPSDSATYLCAMSYSGGGADGLTFGKGTHLIIQP
Vbeta: DVKVTQSSRYLVKRTGEKVFLECVQDMDHENMFWYRQDPGLGLRLIYFSYDVKMKEKGDIPEGYSVSREKKERFSLILESASTNQTSMYLCASSQGNTGELFFGEGSRLTVL
Turning to B2, the results for the binding result in assay [1] and in assay [2] were “no recognition” and “recognises”, respectively.

B3: 4400 TCR-N (TCR, V domains shown)
Valpha: GEDVEQSLFLSVREGDSSVINCTYTDSSSTYLYWYKQEPGAGLQLLTYIFSNMDMKQDQRLTVLLNKKDKHLSLRIADTQTGDSAIYFCAPGGYNKLIFGAGTRLAVHP
Vbeta: DVKVTQSSRYLVKRTGEKVFLECVQDMDHENMFWYRQDPGLGLRLIYFSYDVKMKEKGDIPEGYSVSREKKERFSLILESASTNQTSMYLCASRIGNTGELFFGEGSRLTVL
With B3, the binding result in assay [1] is “no recognition”; in assay [2], “recognises”.

B4: 4400 TCR-N13 (TCR, V domains shown)
Valpha: QKEVEQDPGPLSVPEGAIVSLNCTYSNSAFQYFMWYRQYSRKGPELLMYTYSSGNKEDGRFTAQVDKSSKYISLFIRDSQPSDSATYLCAMRANTDKLIFGTGTRLQVFP
Vbeta: DVKVTQSSRYLVKRTGEKVFLECVQDMDHENMFWYRQDPGLGLRLIYFSYDVKMKEKGDIPEGYSVSREKKERFSLILESASTNQTSMYLCASRVGNTGELFFGEGSRLTVL
On to B4, for which the binding result in assay [3] is recorded as “no recognition”; in assay [4], “recognises”.

B5: 4400 TCR-J2 (TCR, V domains shown)
Valpha: NSVTQMEGPVTLSEEAFLTINCTYTATGYPSLFWYVQYPGEGLQLLLKATKADDKGSNKGFEATYRKETTSFHLEKGSVQVSDSAVYFCALRLSGAGSYQLTFGKGTKLSVIP
Vbeta: DVKVTQSSRYLVKRTGEKVFLECVQDMDHENMFWYRQDPGLGLRLIYFSYDVKMKEKGDIPEGYSVSREKKERFSLILESASTNQTSMYLCASSQGNTGELFFGEGSRLTVL
With B5, the results for the binding result in assay [3] and in assay [4] were “no recognition” and “recognises”, respectively.

B6: 4400 TCR-A3 (TCR, V domains shown)
Valpha: KTTQPNSMESNEEEPVHLPCNHSTISGTDYIHWYRQLPSQGPEYVIHGLTSNVNNRMASLAIAEDRKSSTLILHRATLRDAAVYYCILRAPSGTYKYIFGTGTRLKVLA
Vbeta: DVKVTQSSRYLVKRTGEKVFLECVQDMDHENMFWYRQDPGLGLRLIYFSYDVKMKEKGDIPEGYSVSREKKERFSLILESASTNQTSMYLCASRQGNTGELFFGEGSRLTVL
Consider B6, for which the binding result in assay [3] is “no recognition”; in assay [4], “recognises”.

B7: 4400 TCR-A2 (TCR, V domains shown)
Valpha: QKEVEQDPGPLSVPEGAIVSLNCTYSNSAFQYFMWYRQYSRKGPELLMYTYSSGNKEDGRFTAQVDKSSKYISLFIRDSQPSDSATYLCAMRANTDKLIFGTGTRLQVFP
Vbeta: DVKVTQSSRYLVKRTGEKVFLECVQDMDHENMFWYRQDPGLGLRLIYFSYDVKMKEKGDIPEGYSVSREKKERFSLILESASTNQTSMYLCASRQGNTGELFFGEGSRLTVL
B7: the binding result in assay [1] was “no recognition”; in assay [2] it was “recognises”.

B8: 4400 TCR-N12 (TCR, V domains shown)
Valpha: QKEVEQDPGPLSVPEGAIVSLNCTYSNSAFQYFMWYRQYSRKGPELLMYTYSSGNKEDGRFTAQVDKSSKYISLFIRDSQPSDSATYLCAMSYSGGGADGLTFGKGTHLIIQP
Vbeta: DVKVTQSSRYLVKRTGEKVFLECVQDMDHENMFWYRQDPGLGLRLIYFSYDVKMKEKGDIPEGYSVSREKKERFSLILESASTNQTSMYLCASSTGNTGELFFGEGSRLTVL
B8: the figures for the binding result in assay [3] and in assay [4] were “no recognition” and “recognises”, respectively.

B9: 4400 TCR-E (TCR, V domains shown)
Valpha: DAKTTQPPSMDCAEGRAANLPCNHSTISGNEYVYWYRQIHSQGPQYIIHGLKNNETNEMASLIITEDRKSSTLILPHATLRDTAVYYCIVRVAKSGANNLFFGTGTRLTVIP
Vbeta: EADIYQTPRYLVIGTGKKITLECSQTMGHDKMYWYQQDPGMELHLIHYSYGVNSTEKGDLSSESTVSRIRTEHFPLTLESARPSHTSQYLCASSGLTYTDTQYFGPGTRLTVL
Consider B9, for which the results for the binding result in assay [1] and in assay [2] were “no recognition” and “recognises”, respectively.

B10: 4400 TCR-N4 (TCR, V domains shown)
Valpha: QKITQTQPGMFVQEKEAVTLDCTYDTSDPSYGLFWYKQPSSGEMIFLIYQGSYDQQNATEGRYSLNFQKARKSANLVISASQLGDSAMYFCAMRERSGTASKLTFGTGTRLQVTL
Vbeta: DVKVTQSSRYLVKRTGEKVFLECVQDMDHENMFWYRQDPGLGLRLIYFSYDVKMKEKGDIPEGYSVSREKKERFSLILESASTNQTSMYLCASSLGVGSNYGYTFGSGTRLTVV
As to B10, the binding result in assay [3] is recorded as “no recognition”; in assay [4] it was “recognises”.

B11: 4400 TCR-C (TCR, V domains shown)
Valpha: QKITQTQPGMFVQEKEAVTLDCTYDTSDPSYGLFWYKQPSSGEMIFLIYQGSYDQQNATEGRYSLNFQKARKSANLVISASQLGDSAMYFCAMRERTGTASKLTFGTGTRLQVTL
Vbeta: DVKVTQSSRYLVKRTGEKVFLECVQDMDHENMFWYRQDPGLGLRLIYFSYDVKMKEKGDIPEGYSVSREKKERFSLILESASTNQTSMYLCASSPGTENSPLHFGNGTRLTVT
Consider B11, for which the values for the binding result in assay [3] and in assay [4] were “no recognition” and “recognises”, respectively.

B12: 4400 TCR-20 (TCR, V domains shown)
Valpha: QKITQTQPGMFVQEKEAVTLDCTYDTSDPSYGLFWYKQPSSGEMIFLIYQGSYDQQNATEGRYSLNFQKARKSANLVISASQLGDSAMYFCAMRERSGGSYIPTFGRGTSLIVHP
Vbeta: DVKVTQSSRYLVKRTGEKVFLECVQDMDHENMFWYRQDPGLGLRLIYFSYDVKMKEKGDIPEGYSVSREKKERFSLILESASTNQTSMYLCASSLGTFNQPQHFGDGTRLSIL
Consider B12, for which the binding result in assay [3] is recorded as “no recognition”; in assay [4], “recognises”.

The record behind these values is patent publication US20230365649A1 (published 2023).
